Experimental data published in a protein production outcome set (Wang et al. 2014).

Assay: label from the status in PepcDB records
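Note: failed if final PepcDB status was selected cloned or expressed and not failed if soluble or beyond.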

Sequence	protein production
MGHHHHHHSHESVVPARMAEMARCIRERDFPSFAQLTMKDSNQFHATCLDTFPPISYLNAISWRIIHLVHRFNAHHGDTKVAYTFDAGPNAVIFTLDDTVAEFVAAVWHGFPPGSNGD	failed
MTMPRLASSRWWYIMPIVFVTYSLAYLDRANYGFAAASGMADDLRITPGLSSLLGALFFLGYFFFQVPGAIYAEKRSVKKLIFVSLILWGGLATLTGMVANVYLLIGIRFLLGVVEAAVMPAMLVYLCHWFTRAERSRANTFLILGNPVTILWMSVVSGYLVEHFSWRWMFIIEGLPAVIWAFIWWRLVDDRPRQAAWLSGSEKRDLEDALAAEQQGIKPVKNYREAFRSPKVIVLSLQYFCWSIGVYGFVLWLPSILKHGANIDIIEAGWLSALPYLAAVIAMLGVSWASDRLQKRKRFVWPPLLIASIAFYGSYALGSEHFWLSYALLVLAGACMYAPYGPFFAIVPEVLPANVAGGAMALINSMGALGSFSGSWLVGYLNGITGGPGASYLFMSGALLLSVLLTVFLNPHADKREPDAARAHASRRAAPAHP	failed
MPLKKLIEIGSADFSVSTTACVLQLSHREVPVRGKQSKVISGVLADETARLPFTAWVELPGIDIGSIIRIEGAQIRMFRGMPSINFLEHHHHHH	failed
MKILIVSNTALGDTILSTPLFRETRLALPKAHITALLNPVNAMLFETNPYLDKIELYGGRWRGFLGAWWKLWRRGFDVALLGHSNDPQITPLCLLLGISKIIKIPNHKNPWQRFHHNPLEHHHHHH	failed
MNNFKLIVRKWYIPVLIISLITLVASAYALYWATIPETKETQISIRHYSALAYFSGGAEVKKDNPIWANGSFVTLPVYSYSLTPEYSGEFYFTTAPRGDITIETEAKIVYFYEVSDAPVWEKVYYAASNTSRGEIKTNFKINVTDLKSKINEAQNSFGVYLGKTGARIDVSVHYYGKITGKDVDETLSFKIPIDVQSTYYSFSTLNETRDFEMPSTRVVEVQKPLHMKVIPAALCTVSIIFAGLSVVYRTKYSDVSSLEREIERVSWEKKLKEVSFARMPETNLEMVEVERFEDISKAAEETFEHLFYDREKGVFFFIHGGVLYYCREK	failed
MTGSQETRITILDAMTANQIAAGEVVERPASVVKELVENSLDAAARHITVEIEGGGLQLIRVRDDGRGIEPEDAPLAFARHATSKIRRAADLARITTLGFRGEALASIAAVARVEMATRPPGRPGGTLVRVAGGKPPEVTETGCPPGTSVTVKDLFYNTPARRQYLKKPSTEARAIVATVERLALGHPGVAFSLSLDGRRSLATPGNGDLQAVLAALYGLEIGRELLPFNGSGAGWSLHGFTSPPWLHRSNRDQQVLLINGRYITNRLLTWAIESCYRNVIPAGRHPLFVLHLAVDPGEVDVNVHPAKLEVRLQREQDLARQVTNLVKGALFTPRAVAPATISRSGDRKGAGSAPPVQQGFTFREPDKQARYWGEYVLRERARENREPEWPEKTGENTGAIKTREVPEGNGPVERDKPDPIGPETPAEETGKQVLPPLRALGQVFNTYILAGGEDGLYIIDQHAAHERCRYEALVKEGTPGSHPAQMLEPPLPLHLAPDMQVKLIDQIITLRELGFIIEEFGTGVFLLRSVPLGIPPGKEREVLEDFLAESTLPAPERLLKLIACHGAIKAGQSLAGAEMQKLLDDLRGVDHPYTCPHGRPAVVRLDEAQLARYFHRHLK	failed
MLKHLDRSKKGKVARSFLQAISKDEAVAPPLRVVQIEGLAVLKIIKHCKEFSPTLVTGQLLGLDVGSVLEVTNCFPFPVRDDDEEIEADGANYQLEMMRCLREVNVDNNTVGWYQSTVLGSYQTVELIETFMNYQENIKRCVCIIYDPSKADLGVLALKALKLSDSFMELYRGGNFTGEKLREKNFSWMDIFEEIPIKVSNSALVSAFMTELETDTPVSQGDYDRLHSSTTPFLENNMEFLIKCMDDLSMEQQKFQYYYRNLSRQQAQQQAWLQKRRTENMARKSAGEEPLPEEDPSNPIFKAIPEPSRLESFLITNQVSNFCGQINGVAGQNFSRLYLTKALHDN	failed
MTGKKRSASSSRWLQEHFSDKYVQQAQKKGLRSRAWFKLDEIQQSDKLFKPGMTVVDLGAAPGGWSQYVVTQIGGKGRIIACDLLPMDPIVGVDFLQGDFRDELVMKALLERVGDSKVQVVMSDMAPNMSGTPAVDIPRAMYLVELALEMCRDVLAPGGSFVVKVFQGEGFDEYLREIRSLFTKVKVRKPDSSRARSREVYIVATGRKP	not failed
MDQEAFLRERIEKAQAQLQKLRDENRVLRARQIMWGCIEGTIDVCQLGEKDLQDLSSVIDDYLDSLKSRIEYLKKNGEPSSSLPPRVLQDLNVKEDGDIPSMDGSHHQFETNRLTTITTTADACAPNITNNP	failed
MDAYSWLLAVIILLPLISASVPIAASVRWKNVGWAIAAVVVSATFAMSVALAWMVPRAEDRLLAHQLGGVEVPIGIELFADEFSVIVLLLVLAVCLGVLVFTRIGGPRGNAFYSGFLLLVGGMMGILLTGDLFNMYVFLEIMAISSYALVSASKYRWSTYAAFKYLLVGTVGAGFYLLGVALVLASTGTLTMRLLPELLAAVGYTDPVVVAAFILMAVGLAIKIALFPVHTWLADAHASAPDGISAVISALVPAVAVYAFARVLFTVYTLDFIAANPVIGNLLLVAALFSLFAGSFFALLQDHIKLVLAYSTVSQFGLIFVGIAIANETAVFGAILQIFGHGVVKASLFVLAGMFALRFGGIRTLKEYSGVAERAPIMAGAFAVLGIAMIGLPPTVGFAGKWYIALGAFEAGLWQVSLLVLGSTLLSAGYILPFINRIYFHPFEGEDVDAAKVTTGMLIAIIIGAGIGLLLGFASAEIQAAVSTAVERLVA	failed
MHPSLKYMRKDRLPHIFCSGCGNGIVLNCFTNALDKLALKNEDYIAISGIGCSSRVPGYLFCDSLHTTHGRPIAFALGTKVIQNDKKVVVFTGDGDLSAIGGNHFIHGCRRNIDITVICINNNIYGMTGGQCSPTTPHEKKATTAPYGNPENPLDLCELAKAAGATYVARWTTANPIQLANSIKKGMDKKGFSFIEVVSQCPTYYGRFNVSRKPSEMMKNLKESAITVRKAESMEKEELLNKIVVGEFLNIEKPEYVEQLKKLQE	failed
MTEINLLQPMHASTKRDYVQRVVEHDKAESAAVARQWGRDYWDGDRRYGYGGYRYDGRWRPLAQTLIDRYGIKPGMSVLDVGCGKGYLLYEFTQLVPDLTIAGIDVSEYGIANAKEDVRPQLRVGSAVELPYPDHSFDLVVSLGVLHNLPLEDVFRAVSEIERVGRGASKYLMVESFRNEREKANLLYWQLTCLSFHGPDTWAWIYDKCGYRGDHGFIFFE	failed
MLIKQTDYFRIYRVINSLLISQNADPASASMYFSTFGAFILQQHYKVKAVPKGGLAAYNLGGTVLLFADHREDGYVTGAGENFHCWVEADGWAIDFMAPAFSEGTDALAVPAKMFQRPLSAMAASINDLGQSGDFFYRSEPEATARRFADWHKQAMIGDMASVAANWFRKSPKQMAASLSVTDRDGKARTVPLTGEMLTGAW	not failed
MAAIVLTRNLQLAKHHGSGVVGVLCLRGYSAAAAPPEDGPRPLKTTNPAAMKRGTGGRSSFNGIVATVFGATGFVGRYVCNKLGKSGTQMILPYRGDDSDVIRLKVTGDLGQVLFHFYNLEDPASIRDAVKHSNVVINLVGRDFETKNFKFKDVHVNGAERIARIAREAGVERLIHLSSLNVEANPKDLYVKGGSEWLKSKYEGELRVRDAFPNATIIRPADIYGSEDRFLRYYAHIWRRQFRSMPLWHKGEKTVKQPVYVSDVAQAIINAAKDPDSAGRIYQAVGPKRYQLSELVDWFHRLMRKDQKRWGYMRYDMRWDPTFLLKAKLNSFICPGTPIGGLHPARIEREAVTDKVLTGVPTLEDLGVTLTTMEQQVPWELRPYRAALYYDAELGEFETPSPPKCIEARDELRLFA	failed
MAQHFLLTQKAKTLSAFEIANISEAEAFDLLCEARWGSKENVVCSKCGVQHKAYFISIRKQWRCKHCHHTFSVTSGTIFANHKLPLKTYLYILIRFVNAVKGVSALEISRDAKINYRTAFVLCHKLRKALLESRDMQPLSGEVDMGGTYIHPAPRKANKKADRIDYRLKENQNPNKRCVVVAREHFSADEKAENSLYRGAKRSHVFVTYSETQSVVKNFAHAYIEKNSRINTDENTAYESLLLDYDLRTVNHKDEYRSDFGVTNNQAESFFSRFKRMYYGHVHKMSNTYLLNYANEIAYREDNRRKPNGWQFHDILGKCLETTNEQNEWCGYWQRKIFHQEVIWQ	failed
GQTCARPMCIPPSYADLGKAARDIFNKGFGFGLVKLDVKTKSCSGVEFSTSGSSNTDTGKVTGTLETKYKWCEYGLTFTEKWNTDNTLGTEIAIEDQICQGLKLTFDTTFSPNTGKKSGKIKSSYKRECINLGCDVDFDFAGPAIHGSAVFGYEGWLAGYQMTFDSAKSKLTRNNFAVGYRTGDFQLHTNVNDGTEFGGSIYQKVCEDLDTSVNLAWTSGTNCTRFGIAAKYQLDPTASISAKVNNSSLIGVGYTQTLRPGVKLTLSALVDGKSINAGGHKVGLALELEA	failed
MSINTKENIDAIFEKLESFLKSKTVIGEPIKIGETTIIPFIDITFGLGTGGGGGKDEKGNDGTGSGAGAGAKISATAVLVIKGEQVELLPIKKAGGLEKLLDMVPELEHHHHHH	not failed
MIKTSPPMNKLKLNIALSAFFFALVGCQSMPNDPVDIKADLDASIKETKRLNGPKALTQVPNSVQQELMLNNMDQAKQGMLAEKRLEVSATEVDAKDFFQAIVRGSRYNVVIHPDVTGQISLSLNNVTLSEALTVVEDVYGYEIIRRGNVVKVFPPGIRTETIALNYLFLKRFGSSSTTINSGGVSENDPNSGNSSNGNSSNSNNSNSGSNNNQSGNNGSSNQNSGINLYTENESNFWDELKESLTAFVGTGEGRSVIVSPQAGLVTVRALPQELTAVKKFITATESHLHRQVIIEAKIMEVTLNDDFQQGIKWNKVLDQVGSADIIYSTTGNVVGNVISNTIGGVNSINFSKQTSGSDFSGVIELLQTQGNVQVLSSPRITATNNQKAVIKVGEDEYFVTEVSSTTTTGTSTTTTPEVELTPFFSGIALDVTPQISKDGSVILHVHPSVTITEEQSKTIKIGDTTLVLPLAQSSVRESDTIIRANSGEVVVIGGLIETYNIDIESKTPILGDIPYLGELFKNKSQKSQKRELVIMLKPIVVGQDTWKNQLQDARSLLTKWFPEEVDACELSNDGTLTQECQAQCADAEYATEHGVCQMAAQNAASNDN	failed
MKNFNDEEHNSQLTDEVLPEPEDARVIANILKAVGVESFDTRVVAQLVEFVYKYIGEVLELSKTFAQYAEREDIRQDDVKLAISSLLSKSFTQPPSRDVLLQLCRERNAVPLPVVDTYVGIQLPPKEFQLTTRNYQLKRKTTTESVASQELSEATGNISIGESSLQPNEEESNTMNT	failed
MRKLTALFVASTLALGAANLAHAADTTTAAPADAKPMMHHKGKFGPHQDMMFKDLNLTDAQKQQIREIMKGQRDQMKRPPLEERRAMHDIIASDTFDKVKAEAQIAKMEEQRKANMLAHMETQNKIYNILTPEQKKQFNANFEKRLTERPAAKGKMPATAELEHHHHHH	not failed
MAAPSVPTPLYGHVGRGAFSDVYEPAEDTFLLLDALEAAAAELAGVELCLEVGAGSGVVSAFLASMIGPQALYMCTDINPKAAACTLETARCNRVHLQPVITDLVQGLLPRLKGKVDLLVFNPPYVVTPPEEVGSHGIEAAWAGGRNGREVMDRFFPLASQLLSPRGLFYLVTIKENNPVLPRSYGNAANVPELGSGQLGENLLAFKSNIGGLSKGKLYH	failed
MNATLIDCCDPQKPSRVLFHFLILDAPSPSNLPTYIKELQHRGVRHLVRVCGPTYDATLVKSRGIDVHSWPFDDGAPPTRAVLDSWLKLLDTELARQQEDPSVPPPTIGVHCVAGLGRAPILVALALVEYGNVSALDAIALIREKRKGAINQTQMHWITKYKR	not failed
MKNYKIILTALCFICIFSCSKTETKKSIKYKDGVYKSFANIKDDWGGTAEVEIKIEEGKIVECTFLSYEKNGNLKGPEYGKVDGVIKNMGLYKIAQASVLKAAEYGQKLIETQNIDDVDVIAGASISYKLFKDAVENALQGAMQNAKENLEHHHHHH	failed
